From patent publication US20040175758

Molecular target: T1, Q2L, synthetic peptide Ac-LATLSHCIELMVKR-NH2 (L-amino acids)
T1 chain: LATLSHCIELMVKR

B1: Recombinant FLAG-tagged human GPBP (expressed in yeast, FLAG-affinity purified) (protein)
chain: MSDNQSWNSSGSEEDPETESGPPVERCGVLSKWTNYIHGWQDRWVVLKNNALSYYKSEDETEYGCRGSICLSKAVITPHDFDECRFDISVNDSVWYLRAQDPDHRQQWIDAIEQHKTESGYGSESSLRRHGSMVSLVSGASGYSATSTSSFKKGHSLREKLAEMETFRDILCRQVDTLQKYFDACADAVSKDELQRDKVVEDDEDDFPTTRSDGDFLHSTNGNKEKLFPHVTPKGINGIDFKGEAITFKATTAGILATLSHCIELMVKREDSWQKRLDKETEKKRRTEEAYKNAMTELKKKSHFGGPDYEEGPNSLINEEEFFDAVEAALDRQDKIEEQSQSEKVRLHWPTSLPSGDAFSSVGTHRFVQKPYSRSSSMSSIDLVSASDDVHRFSSQVEEMVQNHMTYSLQDVGGDANWQLVVEEGEMKVYRREVEENGIVLDPLKATHAVKGVTGHEVCNYFWNVDVRNDWETTIENFHVVETLADNAIIIYQTHKRVWPASQRDVLYLSVIRKIPALTENDPETWIVCNFSVDHDSAPLNNRCVRAKINVAMICQTLVSPPEGNQEISRDNILCKITYVANVNPGGWAPASVLRAVAKREYPKFLKRFTSYVQEKTAGKPILF
- GPBP autophosphorylation in vitro: efficiently inhibited GPBP autophosphorylation
